Square brackets hold non-standard residues; d marks the D form. Ends that are not written are not given here. Sta = CC(C)C[C@H](N)[C@@H](O)CC(=O)O; Phg = N[C@H](C(=O)O)c1ccccc1; Tle = CC(C)(C)[C@H](N)C(=O)O; Abu = CC[C@H](N)C(=O)O
B1: β-secretase purified from human brain (naturally occurring β-secretase) (protein)
chain: ETDEEPEEPGRRGSFVEMVDNLRGKSGQGYYVEMTVGSPPQTLNILVDTGSSNFAVGAAPHPFLHRYYQRQLSSTYRDLRKGVYVPYTQGKWEGELGTDLVSIPHGPNVTVRANIAAITESDKFFINGSNWEGILGLAYAEIARPDDSLEPFFDSLVKQTHVPNLFSLQLCGAGFPLNQSEVLASVGGSMIIGGIDHSLYTGSLWYTPIRREWYYEVIIVRVEINGQDLKMDCKEYNYDKSIVDSGTTNLRLPKKVFEAAVKSIKAASSTEKFPDGFWLGEQLVCWQAGTTPWNIFPVISLYLMGEVTNQSFRITILPQQYLRPVEDVATSQDDCYKFAISQSSTGTVMGAVIMEGFYVVFDRARKRIGFAVSACHVHDEFRTAAVEGPFVTLDMEDCGYNIPQTDESTLMTIAYVMAAICALFMLPLCLMVCQWRCLRCLRQQHDDFADDISLLK

Key:
[1] = biological target: β-secretase (enzyme preparation not stated for the inhibitor assays) (human) (UniProt P56817); experiment: cell-based or functional assay
[2] = biological target: Swedish mutant P13-P5′ peptide with P1′ aspartic acid replaced with a leucine (D→L), P05067
Swedish mutant P13-P5′ peptide with P1′ aspartic acid replaced with a leucine (D→L), P05067, sequence (P05067 whole entry, looked up, change not shown, tested part not stated): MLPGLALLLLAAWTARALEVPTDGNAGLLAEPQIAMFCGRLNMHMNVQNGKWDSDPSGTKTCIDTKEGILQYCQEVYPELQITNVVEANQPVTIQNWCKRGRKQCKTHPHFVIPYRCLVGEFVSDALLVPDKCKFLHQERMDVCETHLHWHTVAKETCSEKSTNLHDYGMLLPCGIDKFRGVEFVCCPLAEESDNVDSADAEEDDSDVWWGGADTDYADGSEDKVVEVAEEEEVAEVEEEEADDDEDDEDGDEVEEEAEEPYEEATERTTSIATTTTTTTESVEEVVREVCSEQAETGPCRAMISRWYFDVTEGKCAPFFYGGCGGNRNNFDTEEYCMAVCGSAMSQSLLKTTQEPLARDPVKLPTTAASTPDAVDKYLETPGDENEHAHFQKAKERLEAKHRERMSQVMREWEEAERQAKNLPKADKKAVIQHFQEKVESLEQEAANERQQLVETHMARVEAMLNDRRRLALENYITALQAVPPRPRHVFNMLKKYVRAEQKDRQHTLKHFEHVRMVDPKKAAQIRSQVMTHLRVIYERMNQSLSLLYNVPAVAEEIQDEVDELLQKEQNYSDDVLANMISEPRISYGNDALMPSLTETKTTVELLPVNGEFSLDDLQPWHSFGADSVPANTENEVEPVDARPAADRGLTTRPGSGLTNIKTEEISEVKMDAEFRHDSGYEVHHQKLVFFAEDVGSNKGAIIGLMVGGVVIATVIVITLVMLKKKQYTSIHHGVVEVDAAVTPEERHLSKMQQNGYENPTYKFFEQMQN

[3] = biological target: Swedish mutant P13-P5′ peptide with P1′ aspartic acid replaced with a valine (D→V), P05067
Swedish mutant P13-P5′ peptide with P1′ aspartic acid replaced with a valine (D→V), P05067, sequence (P05067 whole entry, looked up, change not shown, tested part not stated): as above

Row | Binder | IC50 Group, MBP C125 assay (Group II: =1<10 µM) [1] [µM] | also measured
1 | Ac-VV[Sta]VAEF [heptamer peptide 7L (Ac-Val-Val-Sta-Val-Ala-Glu-Phe)] |  | IC50 Group, MBP C125 assay (Group IV: =20<50 µM) [1]: < 50 µM
2 | Ac-VM[Sta][Tle]AEF [heptamer peptide 7F (Ac-Val-Met-Sta-tLeu-Ala-Glu-Phe)] |  | IC50 Group, MBP C125 assay (Group IV: =20<50 µM) [1]: < 50 µM
3 | Ac-VE[Sta]VAEF [heptamer peptide 7K (Ac-Val-Glu-Sta-Val-Ala-Glu-Phe)] | < 10 | 
4 | Ac-VG[Sta]VAEF [heptamer peptide 7M (Ac-Val-Gly-Sta-Val-Ala-Glu-Phe)] | < 10 | 
5 | B1 |  | substrate concentration dependence of hydrolysis by brain β-secretase [2]: The valine and leucine substituted Swedish peptides show saturation at a lower concentration than the parent Swedish peptide; substrate concentration dependence of hydrolysis by brain β-secretase [3]: The valine and leucine substituted Swedish peptides show saturation at a lower concentration than the parent Swedish peptide
6 | Ac-VM[Sta][Phg]AEF [heptamer peptide 7D (Ac-Val-Met-Sta-Phg-Ala-Glu-Phe)] | < 10 | 
7 | H-VM[Sta]VEF [hexameric peptide 7R ((NH2)Val-Met-Sta-Val-Glu-Phe, P2′ deleted)] | < 10 | 
8 | Ac-VM[Sta][Abu]AEF [heptamer peptide 7C (Ac-Val-Met-Sta-Abu-Ala-Glu-Phe)] | < 10 | 
9 | Ac-VM[Sta]AAEF [heptamer peptide 7E (Ac-Val-Met-Sta-Ala-Ala-Glu-Phe)] | < 10 | 
10 | Ac-VM[Sta]AEF [hexameric peptide 7N (Ac-Val-Met-Sta-Ala-Glu-Phe, P1′ deleted)] | < 10 | 
